Test [1] has as its target T1, gp78 truncated after amino acid 576 of SEQ ID NO:2 (gp78576) (human, UniProt Q9UKV5 1-576).
T1 construct: C-terminal truncation after the indicated amino acid
Briefly: anti-Myc immunoprecipitation from co-transfected cells, anti-gp78 immunoblot. A general note: A western blot detects proteins with antibodies after separation by electrophoresis.
Experimental: (§1) Samples were treated with MG132 for 8 hr prior to lysis. IP (upper two panels) with anti-Myc was followed by IB as indicated. Lysate corresponding to 10% of the material used for IP was directly IB'ed for gp78 in the lower panel.
(§2) Cells were treated with the proteasome inhibitor MG132 in an attempt to equalize levels of the various forms of gp78.

For test [2], the target named is T2, gp78 truncated after amino acid 595 of SEQ ID NO:2 (gp78595) (human, UniProt Q9UKV5 1-595).
T2 construct: C-terminal truncation after the indicated amino acid
Described as above.
Experimental: as §1, §2

The target of test [3] is T3, gp78 truncated after residue 611 of SEQ ID NO:2 (gp78611) (human, UniProt Q9UKV5 1-611).
T3 construct: C-terminal truncation after the indicated amino acid
The description is as above.
Experimental: as §1, §2

The target of test [4] is N-terminal GFP fusion of gp78 amino acids 579-600 of SEQ ID NO:2 (human, UniProt P42212 1-238 = GFP). Nature of the test: anti-Myc immunoprecipitation from cells co-transfected with GFP fusion and Myc-Ube2G2, anti-GFP immunoblot.
Experimental: (§3) (FIG. 19A) Cells were co-transfected with Myc-Ube2G2 and the indicated gp78 mutants. […] Samples were treated with MG132 for 8 hr prior to lysis. IP (upper two panels) with anti-Myc was followed by IB as indicated. Lysate corresponding to 10% of the material used for IP was directly IB'ed for gp78 in the lower panel. […] Anti-GFP IPs (left panel) or whole cell lysates corresponding to approximately 10% of the amount used for IP (right panel) were IB'ed with antibodies raised against different E2s as indicated. (C) Cells were transfected with GFP fusions as in B together with plasmid encoding Myc-tagged Ube2G2 and IP carried out with anti-Myc (upper two panels). Immunoblotting of IPs and whole cell lysate (lower panel) was with either anti-GFP (top and bottom panels) or with anti-Myc (middle panel).
(§4) Vector without insert was used to equalize total plasmid. In most experiments 0.15 μg of pEGFP-C1 served as an internal control. For experiments not involving immunoprecipitation, 6×10^5 cells were plated in 6 well plates and cell lysis was with Mammalian Protein Extraction Reagent (Pierce). For immunoprecipitation, 2.4× 10^6 cells were seeded in 100 mm dishes and cells were lysed in RIPA buffer (1×PBS, 1% Nonidet P40. 0.5% sodium deoxycholate, 0.1% SDS). […] Supernatants were analyzed after a 10,000×g centrifugation using standard techniques for immunoprecipitation, SDS-PAGE, immunoblotting and ECL. […]
For test [5], the target named is T4, N-terminal GFP fusion of gp78 residues 574-611 (GFP-574-611) (human, UniProt P42212 1-238 = GFP).
T4 construct: the vector encodes the enhanced variant; also called G2BD
Briefly: co-immunoprecipitation with GFP fusion from HEK 293T cells.
Experimental: J558 cells were transfected by electroporation using Bio-rad GENE pulser II at settings of 250 v, 950uF. Vector without insert was used to equalize total plasmid. In most experiments 0.15 μg of pEGFP-C1 served as an internal control. For experiments not involving immunoprecipitation, 6×10^5 cells were plated in 6 well plates and cell lysis was with Mammalian Protein Extraction Reagent (Pierce). For immunoprecipitation, 2.4× 10^6 cells were seeded in 100 mm dishes and cells were lysed in RIPA buffer (1×PBS, 1% Nonidet P40. 0.5% sodium deoxycholate, 0.1% SDS). Lysis buffers were supplemented with Protease Inhibitor Cocktail (Sigma) and 10 mM iodoacetamide. Supernatants were analyzed after a 10,000×g centrifugation using standard techniques for immunoprecipitation, SDS-PAGE, immunoblotting and ECL. Treatment of cells with MG132 (Sigma) was at 50 μM for eight hr. Cycloheximnide was used at 50 μg/ml. All cells were collected at the end of the six hr chase.
Cells were transfected with plasmids encoding GFP fusions of the indicated regions of gp78, and co-immunoprecipitation was evaluated.

The target of test [6] is N-terminal GFP fusion of gp78 residues 574-611 with the E2-m2 mutation (GFP-574-611E2-m2) (human, UniProt P42212 1-238 = GFP). Briefly: anti-GFP immunoprecipitation from HEK 293T cells, immunoblot for endogenous Ube2G2.
Experimental: as §3, §4

T3 sequence (Q9UKV5 1-611): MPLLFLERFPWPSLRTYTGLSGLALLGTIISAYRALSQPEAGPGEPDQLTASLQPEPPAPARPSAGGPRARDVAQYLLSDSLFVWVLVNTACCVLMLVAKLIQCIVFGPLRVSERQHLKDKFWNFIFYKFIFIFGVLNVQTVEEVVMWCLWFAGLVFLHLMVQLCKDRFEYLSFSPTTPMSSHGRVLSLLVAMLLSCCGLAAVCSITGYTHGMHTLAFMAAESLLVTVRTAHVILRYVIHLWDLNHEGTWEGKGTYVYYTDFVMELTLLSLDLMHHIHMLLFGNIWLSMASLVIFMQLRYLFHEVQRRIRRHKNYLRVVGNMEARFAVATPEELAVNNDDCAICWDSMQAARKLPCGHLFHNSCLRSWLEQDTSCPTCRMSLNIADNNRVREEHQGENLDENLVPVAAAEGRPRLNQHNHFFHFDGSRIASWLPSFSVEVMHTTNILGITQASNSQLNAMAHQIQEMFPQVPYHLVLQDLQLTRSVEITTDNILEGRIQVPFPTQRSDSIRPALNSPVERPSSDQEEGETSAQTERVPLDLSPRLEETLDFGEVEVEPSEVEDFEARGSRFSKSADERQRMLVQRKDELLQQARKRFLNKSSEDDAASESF
T2 sequence (Q9UKV5 1-595): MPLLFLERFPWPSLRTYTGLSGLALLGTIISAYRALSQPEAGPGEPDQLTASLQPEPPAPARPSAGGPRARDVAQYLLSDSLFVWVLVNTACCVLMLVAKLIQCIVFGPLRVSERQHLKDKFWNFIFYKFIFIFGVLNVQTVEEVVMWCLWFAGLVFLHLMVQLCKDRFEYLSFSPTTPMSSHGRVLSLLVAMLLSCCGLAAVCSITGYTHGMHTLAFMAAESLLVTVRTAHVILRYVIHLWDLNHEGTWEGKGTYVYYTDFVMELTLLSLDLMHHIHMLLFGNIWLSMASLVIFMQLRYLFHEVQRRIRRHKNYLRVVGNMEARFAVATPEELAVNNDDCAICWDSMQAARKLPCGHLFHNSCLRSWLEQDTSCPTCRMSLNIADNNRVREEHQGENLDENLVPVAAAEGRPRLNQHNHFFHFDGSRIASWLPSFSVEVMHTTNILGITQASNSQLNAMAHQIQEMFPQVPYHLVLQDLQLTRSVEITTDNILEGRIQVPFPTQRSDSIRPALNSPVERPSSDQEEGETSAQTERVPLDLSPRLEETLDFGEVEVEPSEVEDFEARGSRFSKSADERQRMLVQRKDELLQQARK
T1 sequence (Q9UKV5 1-576): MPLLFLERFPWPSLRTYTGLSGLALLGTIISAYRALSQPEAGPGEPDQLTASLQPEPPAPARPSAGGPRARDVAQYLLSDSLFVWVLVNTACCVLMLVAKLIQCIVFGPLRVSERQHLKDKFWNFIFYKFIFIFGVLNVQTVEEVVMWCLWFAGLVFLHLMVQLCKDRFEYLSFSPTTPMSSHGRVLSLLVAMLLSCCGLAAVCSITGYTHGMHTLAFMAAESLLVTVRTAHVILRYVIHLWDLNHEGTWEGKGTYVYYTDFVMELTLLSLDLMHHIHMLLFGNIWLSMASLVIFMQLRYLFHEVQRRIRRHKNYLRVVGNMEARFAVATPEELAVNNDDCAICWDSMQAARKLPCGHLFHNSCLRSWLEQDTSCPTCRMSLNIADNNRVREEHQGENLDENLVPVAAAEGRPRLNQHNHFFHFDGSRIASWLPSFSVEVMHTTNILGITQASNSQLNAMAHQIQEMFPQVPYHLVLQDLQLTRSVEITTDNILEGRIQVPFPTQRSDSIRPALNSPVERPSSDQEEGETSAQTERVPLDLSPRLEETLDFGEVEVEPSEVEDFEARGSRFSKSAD

B1: Myc-Ube2G2, co-expressed in HEK 293T cells (enzyme, not shown: small tags and cut ends)
chain: MAGTALKRLMAEYKQLTLNPPEGIVAGPMNEENFFEWEALIMGPEDTCFEFGVFPAILSFPLDYPLSPPKMRFTCEMFHPNIYPDGRVCISILHAPGDDPMGYESSAERWSPVQSVEKILLSVVSMLAEPNDESGANVDASKMWRDDREQFYKIAKQIVQKSLGL
notes: Plasmid described in Tiwari and Weissman, 2001; also called Myc-MmUbc7; myc-tagged MmUbc7/Ube2G2
For the molecule B1, the binding result in test [1] was “no binding”; in test [2], “no binding”; in test [3], “binds”; in test [4], “binds”.

B2: endogenous Ube2G2 of HEK 293T cells (enzyme)
chain: AGTALKRLMAEYKQLTLNPPEGIVAGPMNEENFFEWEALIMGPEDTCFEFGVFPAILSFPLDYPLSPPKMRFTCEMFHPNIYPDGRVCISILHAPGDDPMGYESSAERWSPVQSVEKILLSVVSMLAEPNDESGANVDASKMWRDDREQFYKIAKQIVQKSLGL
notes: Endogenous protein in cell lysate, detected with rabbit antiserum to residues 148-165; also called endogenous E2
Take B2: the binding result is given as “binds” in test [5] and “no binding” in test [6].

The record behind these values is patent US8420776 (US Dept. of Health and Human Services, dated 2013).
